{"source": "IntAct's records for PubMed 23478064", "parents": {"B1": {"name": "Eukaryotic translation initiation factor 4 gamma 2 (Homo sapiens), P78344-1 (parent)", "chain": "MESAIAEGGASRFSASSGGGGSRGAPQHYPKTAGNSEFLGKTPGQNAQKWIPARSTRRDDNSAANNSANEKERHDAIFRKVRGILNKLTPEKFDKLCLELLNVGVESKLILKGVILLIVDKALEEPKYSSLYAQLCLRLAEDAPNFDGPAAEGQPGQKQSTTFRRLLISKLQDEFENRTRNVDVYDKRENPLLPEEEEQRAIAKIKMLGNIKFIGELGKLDLIHESILHKCIKTLLEKKKRVQLKDMGEDLECLCQIMRTVGPRLDHERAKSLMDQYFARMCSLMLSKELPARIRFLLQDTVELREHHWVPRKAFLDNGPKTINQIRQDAVKDLGVFIPAPMAQGMRSDFFLEGPFMPPRMKMDRDPLGGLADMFGQMPGSGIGTGPGVIQDRFSPTMGRHRSNQLFNGHGGHIMPPTQSQFGEMGGKFMKSQGLSQLYHNQSQGLLSQLQGQSKDMPPRFSKKGQLNADEISLRPAQSFLMNKNQVPKLQPQITMIPPSAQPPRTQTPPLGQTPQLGLKTNPPLIQEKPAKTSKKPPPSKEELLKLTETVVTEYLNSGNANEAVNGVREMRAPKHFLPEMLSKVIILSLDRSDEDKEKASSLISLLKQEGIATSDNFMQAFLNVLDQCPKLEVDIPLVKSYLAQFAARAIISELVSISELAQPLESGTHFPLFLLCLQQLAKLQDREWLTELFQQSKVNMQKMLPEIDQNKDRMLEILEGKGLSFLFPLLKLEKELLKQIKLDPSPQTIYKWIKDNISPKLHVDKGFVNILMTSFLQYISSEVNPPSDETDSSSAPSKEQLEQEKQLLLSFKPVMQKFLHDHVDLQVSALYALQVHCYNSNFPKGMLLRFFVHFYDMEIIEEEAFLAWKEDITQEFPGKGKALFQVNQWLTWLETAEEEESEEEAD"}}}
{"variants_of": "B1", "conditions": "with if4a1_human EIF4A1, P60842"}
{"variant": "E125K", "effect of a mutation on the interaction": "disrupting interaction strength"}
{"variant": "F296A", "effect of a mutation on the interaction": "disrupting interaction strength"}
{"variant": "N86A", "effect of a mutation on the interaction": "disrupting interaction strength"}
